Where two headings read alike, the source gives them in different places. Bounds are passed on as bounds.

The values that follow come from article PMC2756985 (Biochemistry, 2009).

A short description of series [1]: Autooxidation of oxy-ferrous DevS proteins to the ferric. The format is physicochemical, Mycobacterium tuberculosis. The note with it: for autooxidation rate k / autooxidation t1/2: 25 °C.
Series [2] is described as follows: CO association and dissociation kinetics of DevS proteins, stopped flow. Type of series: binding, Mycobacterium tuberculosis. As to conditions: 4 °C; for Kd: read-out: CO Kd, from koff and kon; for CO koff / CO kon: stopped flow; for CO koff: displacement with air saturated buffer or NO solutions; for CO kon: phosphate buffer (50 mM) pH 7.5, 200 mM NaCl, 1 mM EDTA.

Series [3] is described as follows: Oxygen association rates of DevS proteins, laser flash photolysis. The format is binding, Mycobacterium tuberculosis. The note with it: pH 7.5 phosphate buffer (20 mM), 200 mM NaCl, 1 mM EDTA.
Series [4] is described as follows: Oxygen dissociation rates of DevS proteins, stopped flow. The note with it: read-out: O2 Kd; from koff and kon. The format is binding, Mycobacterium tuberculosis.
Another series deals with DevS kinase. The note with it: cited from earlier work.
The conditions of series [5]: cited from earlier work.
The conditions of series [6]: cited from earlier work. The source holds these as a separate data set.
The conditions of series [7]: cited from earlier work. This is another data set of the same source.
[8] abbreviates: phosphate buffer (50 mM), pH 7.5, 1 mM EDTA and 200 mM NaCl.
[9] abbreviates: ferrous unligated form (5c complex).
Where [10] appears, read: ligand binding: O2 (oxy ferrous 6c species).
The mark [11] stands for this setting: CaCl2 0.1 mM, hepes buffer (20 mM), pH 7.5, Chelex 100.
Setting [12] is: CuCl2 10 µM, hepes buffer (20 mM), pH 7.5, Chelex 100.
[13] abbreviates: FeCl3 0.1 mM (nominal), hepes buffer (20 mM), pH 7.5, Chelex 100.
Where [14] appears, read: KCl 200 mM, hepes buffer (20 mM), pH 7.5, pretreated with Chelex 100.
Where [15] appears, read: MgCl2 1 mM, hepes buffer (20 mM), pH 7.5, Chelex 100.
The mark [16] stands for this setting: NaCl 200 mM, hepes buffer (20 mM), pH 7.5, Chelex 100.

B1: full-length Y171F DevS (protein, UniProt P9WGK3 1-578, looked up, variant Y171F)
chain: MTTGGLVDENDGAAMRPLRHTLSQLRLHELLVEVQDRVEQIVEGRDRLDGLVEAMLVVTAGLDLEATLRAIVHSATSLVDARYGAMEVHDRQHRVLHFVYEGIDEETVRRIGHLPKGLGVIGLLIEDPKPLRLDDVSAHPASIGFPPYHPPMRTFLGVPVRVRDESFGTLFLTDKTNGQPFSDDDEVLVQALAAAAGIAVANARLYQQAKARQSWIEATRDIATELLSGTEPATVFRLVAAEALKLTAADAALVAVPVDEDMPAADVGELLVIETVGSAVASIVGRTIPVAGAVLREVFVNGIPRRVDRVDLEGLDELADAGPALLLPLRARGTVAGVVVVLSQGGPGAFTDEQLEMMAAFADQAALAWQLATSQRRMRELDVLTDRDRIARDLHDHVIQRLFAIGLALQGAVPHERNPEVQQRLSDVVDDLQDVIQEIRTTIYDLHGASQGITRLRQRIDAAVAQFADSGLRTSVQFVGPLSVVDSALADQAEAVVREAVSNAVRHAKASTLTVRVKVDDDLCIEVTDNGRGLPDEFTGSGLTNLRQRAEQAGGEFTLASVPGASGTVLRWSAPLSQ
modifications: full-length
For the molecule B1, the autooxidation rate k in series [1] (setting [8]) was 0.012 h⁻¹. In series [2], the Kd amounted to 3.33 µM, the CO koff is 2.43 ± 0.15 ^b s^−1 and the CO kon is recorded as 0.73 ± 0.071 ^b µM^−1s^−1. For the same molecule, the O2 kon in series [3] is listed as 32.4 ^a µM^−1s^−1. For the same molecule, the Kd in series [4] is 0.12 µM. The kinase activity entry in the series on DevS kinase (setting [9]) is listed as “active”. Besides, the kinase activity result with DevS kinase (setting [10]) is “inactive”.

B2: DevS: full length wild-type heme sensor kinase DevS of Mycobacterium tuberculosis (protein, UniProt P9WGK3 1-578, looked up)
chain: MTTGGLVDENDGAAMRPLRHTLSQLRLHELLVEVQDRVEQIVEGRDRLDGLVEAMLVVTAGLDLEATLRAIVHSATSLVDARYGAMEVHDRQHRVLHFVYEGIDEETVRRIGHLPKGLGVIGLLIEDPKPLRLDDVSAHPASIGFPPYHPPMRTFLGVPVRVRDESFGTLYLTDKTNGQPFSDDDEVLVQALAAAAGIAVANARLYQQAKARQSWIEATRDIATELLSGTEPATVFRLVAAEALKLTAADAALVAVPVDEDMPAADVGELLVIETVGSAVASIVGRTIPVAGAVLREVFVNGIPRRVDRVDLEGLDELADAGPALLLPLRARGTVAGVVVVLSQGGPGAFTDEQLEMMAAFADQAALAWQLATSQRRMRELDVLTDRDRIARDLHDHVIQRLFAIGLALQGAVPHERNPEVQQRLSDVVDDLQDVIQEIRTTIYDLHGASQGITRLRQRIDAAVAQFADSGLRTSVQFVGPLSVVDSALADQAEAVVREAVSNAVRHAKASTLTVRVKVDDDLCIEVTDNGRGLPDEFTGSGLTNLRQRAEQAGGEFTLASVPGASGTVLRWSAPLSQ
modifications: full-length
As for B2, the autooxidation half life result in series [1] (0.1 mM Cu2+) is listed as “less than 2 min”; in series [5] (37 °C, full length DevS from a slow expressing vector) it was 4 h. The autooxidation rate k in series [1] (setting [11]) is 0.0049 h⁻¹; in series [1] (setting [12]), 0.062 h⁻¹; in series [1] (CuCl2 0.1 mM, hepes buffer (20 mM), pH 7.5, Chelex 100), 25 h⁻¹; in series [1] (setting [13]) it was 0.09 h⁻¹; in series [1] (setting [14]) it was 0.013 h⁻¹; in series [1] (setting [15]), 0.012 h⁻¹. Also, the autooxidation rate k in series [1] (setting [16]) came out at 0.010 h⁻¹; in series [1] (hepes 20 mM, pH 7.5, pretreated with Chelex 100, no added cation), 0.0033 h⁻¹; in series [1] (setting [8]), 0.019 h⁻¹. For the same molecule, the “autooxidation t1/2” value worked out at 170 h in series [1] (setting [11]); 11 h in series [1] (setting [12]); 7.8 h in series [1] (setting [13]); 78 h in series [1] (setting [14]); 59 h in series [1] (setting [15]); 96 h in series [1] (setting [16]). For the same molecule, the “autooxidation t1/2” value in series [1] (setting [8]) is given as over 30 h; in series [1] (phosphate buffer (50 mM), pH 7.5, 1 mM EDTA and 200 mM NaCl, listed as Full length wild-type DevS), 73.6 h. Also, the “decrease of autooxidation rate on tenfold decrease in Cu2+ concentration” value in series [1] (Cu2+ from 100 to 10 µM) is recorded as “over 300 fold”. Further, in series [1] (in the absence of Fe3+ and Cu2+), the autooxidation half-lives result is on record as “greater than one day”. Moreover, the autooxidation rates in series [1] (in the presence of K+, Na+, Mg2+, and Ca2+) was in the range of 0.005 to 0.02 h⁻¹. Moreover, the Kd in series [2] is 8.29 µM; in series [4], 0.58 µM. Further, the CO koff in series [2] was 2.57 ± 0.40 ^b s^−1. In series [2], the CO kon was 0.31 ± 0.031 ^b µM^−1s^−1. For the same molecule, the O2 kon in series [3] is reported as 11.8 ^a µM^−1s^−1. Also, the kinase activity entry was “active” with DevS kinase (setting [9]); “intermediate kinase activity” with DevS kinase (ferrous unligated form (5c complex), listed as wild-type DevS); “further activates the kinase” with DevS kinase (ligand binding: CO and NO); “inactive” in the series with DevS kinase (setting [10]); “completely inactivates it” in the series with DevS kinase (ligand binding: O2 (oxy ferrous 6c species), listed as wild-type DevS).

B3: EcDos: Escherichia coli Dos, heme-regulated phosphodiesterase (protein, UniProt P76129 1-799, looked up)
Oxygen sensor protein DosP: MKLTDADNAADGIFFPALEQNMMGAVLINENDEVMFFNPAAEKLWGYKREEVIGNNIDMLIPRDLRPAHPEYIRHNREGGKARVEGMSRELQLEKKDGSKIWTRFALSKVSAEGKVYYLALVRDASVEMAQKEQTRQLIIAVDHLDRPVIVLDPERHIVQCNRAFTEMFGYCISEASGMQPDTLLNIPEFPADNRIRLQQLLWKTARDQDEFLLLTRTGEKIWIKASISPVYDVLAHLQNLVMTFSDITEERQIRQLEGNILAAMCSSPPFHEMGEIICRNIESVLNESHVSLFALRNGMPIHWASSSHGAEIQNAQSWSATIRQRDGAPAGILQIKTSSGAETSAFIERVADISQHMAALALEQEKSRQHIEQLIQFDPMTGLPNRNNLHNYLDDLVDKAVSPVVYLIGVDHIQDVIDSLGYAWADQALLEVVNRFREKLKPDQYLCRIEGTQFVLVSLENDVSNITQIADELRNVVSKPIMIDDKPFPLTLSIGISYDLGKNRDYLLSTAHNAMDYIRKNGGNGWQFFSPAMNEMVKERLVLGAALKEAISNNQLKLVYQPQIFAETGELYGIEALARWHDPLHGHVPPSRFIPLAEEIGEIENIGRWVIAEACRQLAEWRSQNIHIPALSVNLSALHFRSNQLPNQVSDAMHAWGIDGHQLTVEITESMMMEHDTEIFKRIQILRDMGVGLSVDDFGTGFSGLSRLVSLPVTEIKIDKSFVDRCLTEKRILALLEAITSIGQSLNLTVVAEGVETKEQFEMLRKIHCRVIQGYFFSRPLPAEEIPGWMSSVLPLKI
For B3, in series [5], the autooxidation rate k was 0.7 h⁻¹ and the “autooxidation t1/2” value is 1 h.

B4: Bovine Mb: bovine myoglobin (protein, UniProt P02192 2-154, looked up)
Myoglobin: GLSDGEWQLVLNAWGKVEADVAGHGQEVLIRLFTGHPETLEKFDKFKHLKTEAEMKASEDLKKHGNTVLTALGGILKKKGHHEAEVKHLAESHANKHKIPVKYLEFISDAIIHVLHAKHPSDFGADAQAAMSKALELFRNDMAAQYKVLGFHG
Consider B4, for which the “autooxidation t1/2” value in series [5] (pH 9, 25 °C) is 63 h.

B5: BjFixL: FixL gas sensor kinase (literature comparator) (protein, UniProt P23222 1-505, looked up)
Sensor protein FixL: MAPTRVTHPPDDGRGEHFRVRIEGFGVGTWDLDLKTWALDWSDTARTLLGIGQDQPASYDLFLSRLEPDDRERVESAIKRVSERGGGFDVSFRVAGTSNAGQWIRARAGLIRDEAGTARHLSGIFLDIDEEKQVEGALRTRETHLRSILHTIPDAMIVIDGHGIIQLFSTAAERLFGWSELEAIGQNVNILMPEPDRSRHDSYISRYRTTSDPHIIGIGRIVTGKRRDGTTFPMHLSIGEMQSGGEPYFTGFVRDLTEHQQTQARLQELQSELVHVSRLSAMGEMASALAHELNQPLAAISNYMKGSRRLLAGSSDPNTPKVESALDRAAEQALRAGQIIRRLRDFVARGESEKRVESLSKLIEEAGALGLAGAREQNVQLRFSLDPGADLVLADRVQIQQVLVNLFRNALEAMAQSQRRELVVTNTPAADDMIEVEVSDTGSGFQDDVIPNLFQTFFTTKDTGMGVGLSISRSIIEAHGGRMWAESNASGGATFRFTLPAADEN
As to B5, in series [6], the CO koff is 0.045 s⁻¹ and the CO kon was 5000 M⁻¹ s⁻¹. Also, the Kd in series [6] (read-out: CO Kd) was 9 µM. Moreover, in series [7], the O2 koff is 20 s⁻¹ and the O2 kon is 145000 M⁻¹ s⁻¹. The Kd in series [7] (read-out: O2 Kd) was 138 µM. Besides, in series [5] (pH7, 37 °C), the autooxidation rate k was 2.8 h⁻¹ and the “autooxidation t1/2” value was 0.25 h.
